We go through one protein from article PMC4995436, “Characterization of a novel low-temperature-active, alkaline and sucrose-tolerant invertase” (Scientific Reports, 2016).

Substrate in this data set: OC[C@H]1O[C@@](CO)(O[C@H]2O[C@H](CO)[C@@H](O)[C@H](O)[C@H]2O)[C@@H](O)[C@@H]1O
Nature of the data set: initial-rate kinetics, DNS reducing sugar assay, Michaelis-Menten fit. It is filed as biochemical, Bacillus sp. HJ14. Conditions: 30 °C, McIlvaine buffer pH 8.0, 1.5-36.5 mM sucrose. An excerpt: initial-rate kinetics, DNS reducing sugar assay, Michaelis-Menten fit on rInvHJ14 (InvHJ14)

B1: rInvHJ14 (InvHJ14) (Bacillus sp. HJ14) (protein)
chain: MTTTDAALRQKIADRIRNYEHLVKKDVYRQHFHLMPPVGLLNDPNGLIQWKGIYHVFYQWQPFKTGHGAKFWGHYTSTDLVNWQHEEAALAPSDWFDQNGCYSGSAFIDDGQMHVMYTGNVRDEQGNRETYQCLAVSEDGIHFQKKGVVATLPEGFTAHFRDPKVWKRNGQWYMVLGAQSLDLKGHLVLFTSDTLDNWTFQGTIAGSGKNGLDNFGYMWECPDLFELDGRDVLIVSPQGLEPDGLKYHNTHQSGYFVGTLDDHSYQYTHGAFEELDRGFDFYAQQTFLDESGRRLLIGWMGVPDQGEEHHPTISYQWIHCLTIPRELRLDEDGHLIQKPVSELQSMRTNEQEHVFHIKRSVHSIPVEDITSAEVFIDQIDTQKGFECCIRAAARIIYDKEEGKLTLERDRFEDRSKEVREAVIEELHDLHIFIDSSSIEIFVNGGREVFTARYFPSPGNKSISISGRNETKLKLKAWHLQREADQ
notes: pEASY-E2 vector, E. coli BL21 (DE3), Ni-NTA purified, approximately 58 kDa on SDS-PAGE
What is called Km is the concentration of substrate that gives half-maximal velocity. By Vmax is commonly meant the rate approached at saturating substrate. As usually defined, the kcat is the maximal rate divided by the concentration of active sites. By kcat/Km is commonly meant the second-order rate constant that governs catalysis at low substrate concentration. B1: the Km came to 62.9 mM, the Vmax came to 772 µmol/min/mg, the kcat is 746 s⁻¹ and the specificity constant (kcat/Km) was 11900 M⁻¹ s⁻¹.
